Assay [1] deals with T1, cMet-Fc fusion protein (extracellular domain of the cMet receptor expressed as an Fc-fusion protein) (human, UniProt P08581 25-932).
T1 construct: extracellular domain; also called soluble cMet-Fc-fusion protein; soluble cMet receptor; not shown: Fc part
The assay can be described thus: phage ELISA, cMet-Fc vs TRAIL-Fc. Here is the method:
Protein phage ELISAs using peptide-displaying phage isolates from the various selection campaigns were performed to determine specificity of the peptides for cMet versus an unrelated Fc-fusion protein (TRAIL-Fe). Briefly, 384-well plates were coated overnight at 4 C with 0.5 μg/mL of cMet-Fc fusion protein or TRAIL-Fc fusion protein (background). The plates were blocked for 2 hours 37 C with 3% (w/v) BSA in PBS containing 0.05% (v/v) Tween-20 (PBST). The plates were washed with PBST and 100 μL of peptide-displaying phage were added to each well. The plates were incubated for 2 hours at room temperature and washed with PBST. cMet-binding peptide-displaying phage were detected using an HRP-conjugated anti-M13 antibody.
Background: ELISA stands for enzyme-linked immunosorbent assay.

The target in assay [2] is T2, human cMet expressed on 3T3 cells (human, UniProt P08581 25-1390).
T2 construct: whole, on cells; cells fixed with glutaraldehyde; also called cell surface-expressed human cMet; 3T3 cells that over-express human cMet
The assay can be described thus: whole cell phage ELISA, 3T3 human cMet vs 3T3. Here is the method: Whole cell ELISAs were performed using 3T3 cells that over-express human cMet. […] Briefly, 96-well plates were seeded with 10⁵ cells per well. The plates were centrifuged for 5 minutes at 1600 rpm to pellet the cells. The resulting cell layer was fixed with 0.1% (v/v) glutaraldehyde for 12 minutes at 37 C. […] Peptide-displaying phage also were blocked in the above solution for 1 hour at 37 C. 100 μL of blocked phage was then added to each well and the plates were incubated for 1 hour at room temperature. The plates were washed with PBST. cMet-binding peptide-displaying phage were detected using an HRP-conjugated anti-M13 antibody.

Assay [3] addresses T1, cMet-Fc fusion protein (extracellular …). The assay can be described thus: phage ELISA on cMet-Fc, competitor HGF 100 ng/mL. The procedure: (§1) These assays were conducted using the peptide-displaying phage discovered from the initial selection and screening campaigns using the first generation peptide libraries. Briefly, 96-well plates were coated overnight at 4 C with 0.5 μg/mL of cMet-Fc fusion protein or TRAIL-Fc fusion protein (background). The plates were blocked for 2 hours at 37 C with 3% BSA in PBST. […] This was followed by an addition of 30 μL of peptide-displaying phage overnight culture to each well. The plates were incubated for 2 hours at room temperature, washed with PBST and cMet-binding peptide-displaying phage was detected using an HRP-conjugated anti-M13 antibody.

For assay [4] the target is unchanged. The assay can be described thus: phage ELISA on cMet-Fc, competitor HGF 500 ng/mL. The procedure:
as §1

T1 sequence (P08581 25-932): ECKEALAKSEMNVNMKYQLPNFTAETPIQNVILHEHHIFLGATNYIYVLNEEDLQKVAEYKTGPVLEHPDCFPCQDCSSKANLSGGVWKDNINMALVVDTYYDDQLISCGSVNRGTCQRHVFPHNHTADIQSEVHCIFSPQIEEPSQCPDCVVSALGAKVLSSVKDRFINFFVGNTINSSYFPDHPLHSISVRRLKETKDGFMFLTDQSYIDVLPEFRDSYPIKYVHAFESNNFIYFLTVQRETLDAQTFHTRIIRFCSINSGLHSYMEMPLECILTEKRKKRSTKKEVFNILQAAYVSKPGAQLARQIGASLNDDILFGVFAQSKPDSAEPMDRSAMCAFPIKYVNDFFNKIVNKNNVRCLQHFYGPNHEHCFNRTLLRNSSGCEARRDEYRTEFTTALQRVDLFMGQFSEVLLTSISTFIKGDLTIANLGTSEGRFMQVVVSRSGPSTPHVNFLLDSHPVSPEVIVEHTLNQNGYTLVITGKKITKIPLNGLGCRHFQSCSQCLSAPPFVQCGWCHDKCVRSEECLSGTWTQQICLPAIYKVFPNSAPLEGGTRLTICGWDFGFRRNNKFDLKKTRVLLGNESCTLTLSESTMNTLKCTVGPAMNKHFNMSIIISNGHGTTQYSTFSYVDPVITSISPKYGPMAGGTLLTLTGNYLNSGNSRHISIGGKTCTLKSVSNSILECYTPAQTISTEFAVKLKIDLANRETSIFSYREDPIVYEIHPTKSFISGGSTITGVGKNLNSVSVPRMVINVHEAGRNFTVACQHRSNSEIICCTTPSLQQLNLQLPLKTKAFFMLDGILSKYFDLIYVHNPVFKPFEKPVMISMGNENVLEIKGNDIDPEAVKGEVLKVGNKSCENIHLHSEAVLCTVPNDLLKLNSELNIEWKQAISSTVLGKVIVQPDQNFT
T2 sequence (P08581 25-1390): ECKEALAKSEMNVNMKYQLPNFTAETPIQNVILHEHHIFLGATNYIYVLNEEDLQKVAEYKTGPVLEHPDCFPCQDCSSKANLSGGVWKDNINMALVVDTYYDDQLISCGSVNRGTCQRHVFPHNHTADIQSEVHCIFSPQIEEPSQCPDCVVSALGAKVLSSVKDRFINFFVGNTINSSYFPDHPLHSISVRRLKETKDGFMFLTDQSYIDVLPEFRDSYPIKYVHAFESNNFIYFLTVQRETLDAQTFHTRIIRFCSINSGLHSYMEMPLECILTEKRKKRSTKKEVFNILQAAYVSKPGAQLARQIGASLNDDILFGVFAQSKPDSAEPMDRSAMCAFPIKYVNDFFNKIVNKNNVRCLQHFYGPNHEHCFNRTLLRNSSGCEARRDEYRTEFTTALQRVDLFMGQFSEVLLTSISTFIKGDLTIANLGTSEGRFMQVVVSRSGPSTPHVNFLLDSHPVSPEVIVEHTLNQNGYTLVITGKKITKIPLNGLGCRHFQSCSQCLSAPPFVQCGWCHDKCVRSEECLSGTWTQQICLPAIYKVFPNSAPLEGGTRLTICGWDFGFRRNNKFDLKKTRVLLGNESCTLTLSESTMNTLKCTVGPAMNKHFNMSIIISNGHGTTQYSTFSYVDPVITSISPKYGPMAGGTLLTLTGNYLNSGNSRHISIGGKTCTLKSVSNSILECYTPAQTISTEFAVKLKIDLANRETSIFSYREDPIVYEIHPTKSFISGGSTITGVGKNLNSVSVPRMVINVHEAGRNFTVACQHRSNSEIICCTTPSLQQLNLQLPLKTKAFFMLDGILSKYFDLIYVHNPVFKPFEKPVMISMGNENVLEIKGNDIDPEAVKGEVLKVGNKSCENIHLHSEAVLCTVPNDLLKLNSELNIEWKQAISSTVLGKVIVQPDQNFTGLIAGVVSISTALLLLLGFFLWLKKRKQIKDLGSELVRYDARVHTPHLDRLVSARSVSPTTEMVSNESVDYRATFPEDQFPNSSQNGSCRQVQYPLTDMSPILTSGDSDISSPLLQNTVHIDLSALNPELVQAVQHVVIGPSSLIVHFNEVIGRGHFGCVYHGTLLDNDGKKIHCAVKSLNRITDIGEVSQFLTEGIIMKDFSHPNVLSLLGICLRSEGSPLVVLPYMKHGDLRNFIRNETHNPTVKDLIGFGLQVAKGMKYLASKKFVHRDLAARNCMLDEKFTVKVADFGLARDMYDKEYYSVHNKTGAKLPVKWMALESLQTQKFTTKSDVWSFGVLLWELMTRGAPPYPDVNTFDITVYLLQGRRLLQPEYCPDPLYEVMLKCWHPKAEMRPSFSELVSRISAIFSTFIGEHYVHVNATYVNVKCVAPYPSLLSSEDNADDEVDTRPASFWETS

Take AGYSVCKGYPSFECAFFGT [336-D07 peptide-displaying phage (SEQ ID NO: 075)]: in assay [1], the “Protein ELISA (fold over background)” value came to 5.8 fold. Further, in assay [2], the “WC ELISA (fold over background)” value came to 1.33 fold. For the same molecule, the results for the “% of binding in the absence of HGF” value in assay [3] and in assay [4] were 44% and 37%, respectively.
In the case of AGYWSCAGPPMFMCTWQGT [552-G03 peptide-displaying phage (SEQ ID NO: 079)], in assay [1], the “Protein ELISA (fold over background)” value was 10.7 fold. The “WC ELISA (fold over background)” value in assay [2] was determined as 1.27 fold. In addition, the “% of binding in the absence of HGF” value in assay [3] amounted to 101%; in assay [4], 83%.
Taken in the same sequence, the figures for AGTMYCLGPPTFICQQYGT [548-C06 peptide-displaying phage (SEQ ID NO: 084)] were 13 fold, 1.23 fold, 94% and 77%.
Taken in the same sequence, the figures for AGDIVCTGHPYFECWSWGT [333-C05 peptide-displaying phage (SEQ ID NO: 068)] were 6.3 fold, 1.33 fold, 83% and 66%.
Taken in the same sequence, the figures for AGYWHCKGPPHFACEFHGT [331-D03 peptide-displaying phage (SEQ ID NO: 077)] were 5.5 fold, 1.4 fold, 64% and 55%.
With AGSTDCRGHPTFECWGWGT [549-F06 peptide-displaying phage (SEQ ID NO: 086)], in assay [1], the “Protein ELISA (fold over background)” value is 5.2 fold. The “WC ELISA (fold over background)” value in assay [2] stood at 1.3 fold. Also, the figures for the “% of binding in the absence of HGF” value in assay [3] and in assay [4] were 96% and 40%, respectively.
As for AGGWECTGPPWFQCGYYGT [334-C08 peptide-displaying phage (SEQ ID NO: 067)], in assay [1], the “Protein ELISA (fold over background)” value was 8 fold. The “WC ELISA (fold over background)” value in assay [2] came to 1.47 fold. The “% of binding in the absence of HGF” value in assay [3] amounted to 70%; in assay [4], 57%.
Taken in the same sequence, the figures for AGSIACTGWPYFSCIDLGT [547-H12 peptide-displaying phage (SEQ ID NO: 088)] were 5.6 fold, 1.1 fold, 92% and 81%.
Turning to GSLIICWWSWCDKQAP [567-C08 peptide-displaying phage (SEQ ID NO: 009)], the “Protein ELISA (fold over background)” value in assay [1] came out at 3.8 fold. Also, the “WC ELISA (fold over background)” value in assay [2] came to 1.27 fold. For the same molecule, the “% of binding in the absence of HGF” value in assay [3] stood at 85%; in assay [4], 94%.
For the molecule AGWSDCLGPPQFTCVHWGT [552-A01 peptide-displaying phage (SEQ ID NO: 083)], the “Protein ELISA (fold over background)” value in assay [1] came out at 3.9 fold. The “WC ELISA (fold over background)” value in assay [2] amounted to 1.33 fold. Also, the “% of binding in the absence of HGF” value in assay [3] is 76%; in assay [4] it was 81%.
Taken in the same sequence, the figures for AGHWICVGPPTFSCQWHGT [330-G09 peptide-displaying phage (SEQ ID NO: 071)] were 13.5 fold, 1.4 fold, 42% and 26%.
Take AGYWDCKGPPHFFCEWHGT [552-G11 peptide-displaying phage (SEQ ID NO: 080)]: the “Protein ELISA (fold over background)” value in assay [1] was 7.4 fold. Further, the “WC ELISA (fold over background)” value in assay [2] was determined as 1.23 fold. The “% of binding in the absence of HGF” value was 55% in assay [3] and 41% in assay [4].
Take AGSYWCSGPPTFMCRYEGT [545-B12 peptide-displaying phage (SEQ ID NO: 085)]: the “Protein ELISA (fold over background)” value in assay [1] was determined as 17.1 fold. For the same molecule, in assay [2], the “WC ELISA (fold over background)” value is 1.27 fold. In addition, the “% of binding in the absence of HGF” value in assay [3] amounted to 51%; in assay [4], 42%.
Consider AGEWWCHGPPEFLCYWTGT [331-F01 peptide-displaying phage (SEQ ID NO: 072)], for which the “Protein ELISA (fold over background)” value in assay [1] came out at 12.6 fold. The “WC ELISA (fold over background)” value in assay [2] stood at 1.47 fold. Besides, the results for the “% of binding in the absence of HGF” value in assay [3] and in assay [4] were 77% and 73%, respectively.
Taken in the same sequence, the figures for AGSSPCKGWPTFECYFYGT [552-F01 peptide-displaying phage (SEQ ID NO: 087)] were 4.8 fold, 1.3 fold, 56% and 37%.
Turning to AGNWICTGPPSFGCWYHGT [331-G06 peptide-displaying phage (SEQ ID NO: 078)], the “Protein ELISA (fold over background)” value in assay [1] was 4.7 fold. Moreover, the “WC ELISA (fold over background)” value in assay [2] is 1.4 fold. Also, the entries for the “% of binding in the absence of HGF” value in assay [3] and in assay [4] were 59% and 51%, respectively.
For AGSWECTGPPSFHCQWYGT [551-G12 peptide-displaying phage (SEQ ID NO: 070)], in assay [1], the “Protein ELISA (fold over background)” value is 3.9 fold. The “WC ELISA (fold over background)” value in assay [2] is 1.37 fold. The figures for the “% of binding in the absence of HGF” value in assay [3] and in assay [4] were 88% and 46%, respectively.
Take AGSIQCVGPPSFECTPYGT [335-D11 peptide-displaying phage (SEQ ID NO: 074)]: in assay [1], the “Protein ELISA (fold over background)” value is 6.7 fold. In addition, the “WC ELISA (fold over background)” value in assay [2] was found to be 1.37 fold. Moreover, the “% of binding in the absence of HGF” value in assay [3] is 56%; in assay [4], 37%.
AGTWHCAGPPWFTCYMDGT [551-B02 peptide-displaying phage (SEQ ID NO: 069)]: the “Protein ELISA (fold over background)” value in assay [1] stood at 9 fold. Further, the “WC ELISA (fold over background)” value in assay [2] turned out to be 1.3 fold. The “% of binding in the absence of HGF” value in assay [3] was found to be 69%; in assay [4], 43%.
For the molecule AGVNSCLGPPTFECYQMGT [332-C03 peptide-displaying phage (SEQ ID NO: 076)], the “Protein ELISA (fold over background)” value in assay [1] is 5.7 fold. Besides, the “WC ELISA (fold over background)” value in assay [2] came out at 1.2 fold. Moreover, the “% of binding in the absence of HGF” value in assay [3] is 37%; in assay [4] it was 95%.
As to GSSTICPGTACVDHAP [574-H03 peptide-displaying phage (SEQ ID NO: 008)], the “Protein ELISA (fold over background)” value in assay [1] is 3.2 fold. Besides, the “WC ELISA (fold over background)” value in assay [2] was found to be 1.27 fold. In addition, the results for the “% of binding in the absence of HGF” value in assay [3] and in assay [4] were 88% and 18%, respectively.
Turning to AGYFHCSGSPWFQCDYYGT [550-G08 peptide-displaying phage (SEQ ID NO: 081)], in assay [1], the “Protein ELISA (fold over background)” value is 9.1 fold. Besides, in assay [2], the “WC ELISA (fold over background)” value was found to be 1.4 fold. Besides, the “% of binding in the absence of HGF” value is 79% in assay [3] and 58% in assay [4].

The record behind these values is US20120039802A1 (published 2012).
